In brackets after ≈: the same amount, converted by molar mass. Read-outs that look alike come from different tables or passages of the source. Numbered stars: 1 amine (or outer) side, 2 acyl side, 3 side chain; on linkers, the order of the positions; unused ones are H or OH. Square brackets hold non-standard residues; d marks the D form. Side chains are listed from the residue outwards. Ends that are not written are not given here. Peptide text beside a SMILES is read from it. * marks the point of attachment. C20 diacid = O=C(O)CCCCCCCCCCCCCCCCCCC(=O)*; γGlu = O=C(O)[C@H](CCC(=O)[*:2])N[*:1]; AEEA = NCCOCCOCC(=O)O; Aib = CC(C)(N)C(=O)O
Legend:
[1] = Turbidity of crude library peptides (absorbance at 600 nm); type: physicochemical; conditions: Physical stability of peptides
Procedure, shortened: (§1)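 Crude peptides at 267 μM in 50 mM sodium acetate pH 4.0 or 50 mM sodium phosphate pH 7.0, pre-incubated 1-2 h at room temperature, then 4 μM final ThT added. Turbidity read first as A600. ThT fluorescence (ex 450/em 480 nm) read every 10 min for 72 h at 40° C, with 5 min shaking before each read; fibril formation = average emission.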

[2] = Fibril formation of crude library peptides (Thioflavin T); type: physicochemical; set-up: key: average ThT fluorescence emission at 480 nm (ex 450 nm), raw units; conditions: Physical stability of peptides
Procedure, shortened: as §1

[3] = Thioflavin T fibril formation assay of purified peptides; type: physicochemical; conditions: 267 μM, phosphate buffer pH 7.0, 96 h at 40° C.
Method: Thioflavin T fibril formation assay: Peptides are dissolved as 267 μM in 50 mM phosphate buffer pH 7.0 for 2 h at room temperature on a rocking table. The samples were then divided into three replicates of 80 μl/well and mixed with 2 μl/well Thioflavin T (ThT) to a final concentration of 4 μM ThT in a black 384 well microplate with a clear bottom (Greiner #781096). The plate is inserted in a CLARIOstar Plus microplate reader (BMG Labtech) and fibril formation is measured as an increase in fluorescence emission at 480 nm (excitation at 450 nm) during 96 h at 40° C. with cycles of 5 min rest and 5 min linear shaking at 700 rpm.

[4] = Solubility of purified peptides; type: physicochemical; conditions: 100 mM phosphate buffer, target pH 7.0, target approximately 10 mg/mL
Method: Solubility was tested in the following vehicles: 100 mM phosphate buffer facilitating a target pH of 7.0. Samples were directly dissolved in Mini-UniPrep Syringeless Filter 0.45 μm unit (Whatman). For the desired concentration, such as a concentration of approximately 10 mg/mL, 1050 nmol of peptide was dissolved in 400 μL vehicle. Samples were incubated for at least 1 h at room temperature on a rocking table. The pH was measured and adjusted. Samples were left on the rocking table for an additional hour before a second pH measurement and adjustment. Visual inspection was performed and noted before the filter was pushed. The concentration of peptide in the filtrate was determined using CAD (Charged Aerosol Detection), double determination was done for each sample. The measured concentration was reported in μM. Furthermore, the pH of the filtrate was measured and reported. Peptides with a measured concentration within +/−20% of target concentration are considered fully soluble.

[5] = target: GLP1R (Homo sapiens, UniProt P43220); assay: hGLP1R potency, cAMP accumulation in CHO-K1 cells stably overexpressing hGLP1R; type: cell-based; set-up: host or cells: CHO-K1
Procedure, shortened: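 Thawed cells go straight into buffer containing 0.5 mM IBMX and 0.05% casein, get graded compound doses for 30 min at room temperature, and are then assayed for accumulated cAMP by time-resolved FRET. Human GLP-1(7-36) serves as positive control; EC50 is derived by nonlinear regression.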

[6] = target: SCTR (Homo sapiens, UniProt P47872); assay: hSCTR potency, cAMP accumulation in CHO-K1 cells stably overexpressing hSCTR; type: cell-based; set-up: alternatively Euroscreen ES-712-AF; FAST-0161L; host or cells: CHO-K1
Procedure, shortened: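 Read-out is TR-FRET cAMP detection, recorded one hour after reagent addition, in CHO-K1 cells stably overexpressing hSCTR. Cells in DPBS containing 0.05% casein and 0.5 mM IBMX are exposed to graded peptide doses for 30 min at room temperature, with human secretin as reference agonist.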

[7] = target: T1, human GLP-1 receptor (hGLP1R) (human, UniProt P43220 24-463); assay: cell-based or functional assay
[8] = target: T2, human secretin receptor (hSCTR) (human, UniProt P47872 23-440); assay: cell-based or functional assay
[9] = target: T1, human GLP-1 receptor (hGLP1R); assay: cell-based or functional assay; remark: listed apart in the source
[10] = target: T2, human secretin receptor (hSCTR); assay: cell-based or functional assay; remark: listed apart in the source

T2 sequence (P47872 23-440): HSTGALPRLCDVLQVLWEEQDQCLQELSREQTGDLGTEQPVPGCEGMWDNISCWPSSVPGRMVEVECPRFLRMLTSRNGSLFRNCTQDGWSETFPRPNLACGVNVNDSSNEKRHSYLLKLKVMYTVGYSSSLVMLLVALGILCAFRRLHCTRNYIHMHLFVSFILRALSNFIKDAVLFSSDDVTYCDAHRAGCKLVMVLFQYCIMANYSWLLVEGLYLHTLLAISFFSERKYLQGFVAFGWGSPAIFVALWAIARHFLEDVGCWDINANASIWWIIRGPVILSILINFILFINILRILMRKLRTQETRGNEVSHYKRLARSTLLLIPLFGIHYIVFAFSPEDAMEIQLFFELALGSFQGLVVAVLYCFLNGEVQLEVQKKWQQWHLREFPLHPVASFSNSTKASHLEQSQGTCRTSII
GLP1R, sequence (P43220 24-463): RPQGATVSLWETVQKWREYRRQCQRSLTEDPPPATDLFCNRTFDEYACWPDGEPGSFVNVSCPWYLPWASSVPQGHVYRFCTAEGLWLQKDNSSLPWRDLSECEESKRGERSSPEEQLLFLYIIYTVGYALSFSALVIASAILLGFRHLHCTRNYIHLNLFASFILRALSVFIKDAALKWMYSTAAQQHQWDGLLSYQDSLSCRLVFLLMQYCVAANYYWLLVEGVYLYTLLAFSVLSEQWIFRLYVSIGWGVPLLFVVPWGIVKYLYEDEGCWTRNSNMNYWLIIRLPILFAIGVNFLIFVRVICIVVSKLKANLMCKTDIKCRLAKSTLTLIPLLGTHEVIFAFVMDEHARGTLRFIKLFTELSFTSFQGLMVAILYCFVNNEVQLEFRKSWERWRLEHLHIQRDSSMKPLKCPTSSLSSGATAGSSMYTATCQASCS
SCTR, sequence (P47872 23-440): as the sequence (P47872 23-440) above

CC(C)C[C@H](NC(=O)[C@H](Cc1ccccc1)NC(=O)[C@H](CCCNC(=N)N)NC(=O)[C@H](CCC(N)=O)NC(=O)[C@H](CC(C)C)NC(=O)C(C)(C)NC(=O)[C@H](C)NC(=O)[C@H](CCC(=O)O)NC(=O)[C@H](CCC(=O)O)NC(=O)[C@H](CCCCNC(=O)COCCOCCNC(=O)COCCOCCNC(=O)CC[C@H](NC(=O)CCCCCCCCCCCCCCCCCCC(=O)O)C(=O)O)NC(=O)[C@H](CC(C)C)NC(=O)[C@H](CCC(=O)O)NC(=O)[C@H](CO)NC(=O)[C@@H](NC(=O)[C@H](CC(=O)O)NC(=O)[C@H](CO)NC(=O)[C@@H](NC(=O)[C@H](Cc1ccccc1)NC(=O)[C@@H](NC(=O)CNC(=O)[C@H](CCC(=O)O)NC(=O)C(C)(C)NC(=O)[C@@H](N)Cc1c[nH]cn1)[C@@H](C)O)[C@@H](C)O)C(C)C)C(=O)N[C@@H](CCC(=O)O)C(=O)N[C@@H](Cc1c[nH]cn1)C(=O)N[C@@H](CC(C)C)C(=O)N[C@H](C(N)=O)C(C)C [compound 168] (H-H[Aib]EGTFTSDVSELK([AEEA-AEEA-γGlu-C20 diacid])EEA[Aib]LQRFLEHLV-NH2)
Turbidity (pH 7) [1]: 0.08 | Fibril formation [2]: 2998 | Fibril formation [3]: No | solubility [4]: 9800 µg/mL (≈ 2560 µM) | Selectivity ([5]; SCTR EC50/GLP1R EC50 ratio, purified peptides): 8333 | EC50 ([5]; cAMP accumulation, CHO-K1 cells overexpressing hGLP1R, read-out: hGLP1R pEC50 (converted)): 0.00631 nM | SCTR EC50/GLP1R EC50 ratio ([5]; selectivity for hGLP1R over hSCTR, cAMP accumulation in CHO-K1 cells): 6853 | EC50 ([6]; cAMP accumulation, CHO-K1 cells overexpressing hSCTR, read-out: hSCTR pEC50 (converted)): 50.1 nM | EC50 ([6]; purified peptides, read-out: hSCTR EC50): 100 nM

B1: SEQ ID NO: 216 (GUB06-046) (peptide)
peptide: H[Aib]EGTFTSDLSRLLEGAALQRFIQWLV-NH2
modifications: N-terminus assumed
SMILES: CC[C@H](C)[C@H](NC(=O)[C@H](Cc1ccccc1)NC(=O)[C@H](CCCNC(=N)N)NC(=O)[C@H](CCC(N)=O)NC(=O)[C@H](CC(C)C)NC(=O)[C@H](C)NC(=O)[C@H](C)NC(=O)CNC(=O)[C@H](CCC(=O)O)NC(=O)[C@H](CC(C)C)NC(=O)[C@H](CC(C)C)NC(=O)[C@H](CCCNC(=N)N)NC(=O)[C@H](CO)NC(=O)[C@H](CC(C)C)NC(=O)[C@H](CC(=O)O)NC(=O)[C@H](CO)NC(=O)[C@@H](NC(=O)[C@H](Cc1ccccc1)NC(=O)[C@@H](NC(=O)CNC(=O)[C@H](CCC(=O)O)NC(=O)C(C)(C)NC(=O)[C@@H](N)Cc1c[nH]cn1)[C@@H](C)O)[C@@H](C)O)C(=O)N[C@@H](CCC(N)=O)C(=O)N[C@@H](Cc1c[nH]c2ccccc12)C(=O)N[C@@H](CC(C)C)C(=O)N[C@H](C(N)=O)C(C)C
pEC50 hGLPR1 [7]: 10.4 -log M | pEC50 hSCTR [8]: 9.3 -log M | pEC50 hGLPR1 [9]: 10.4 -log M | pEC50 hSCTR [10]: 9.3 -log M

B2: SEQ ID NO: 218 (peptide)
peptide: H[Aib]EGTFTSDISRLLEGAALQRFIQWLV-NH2
modifications: N-terminus assumed
SMILES: CC[C@H](C)[C@H](NC(=O)[C@H](Cc1ccccc1)NC(=O)[C@H](CCCNC(=N)N)NC(=O)[C@H](CCC(N)=O)NC(=O)[C@H](CC(C)C)NC(=O)[C@H](C)NC(=O)[C@H](C)NC(=O)CNC(=O)[C@H](CCC(=O)O)NC(=O)[C@H](CC(C)C)NC(=O)[C@H](CC(C)C)NC(=O)[C@H](CCCNC(=N)N)NC(=O)[C@H](CO)NC(=O)[C@@H](NC(=O)[C@H](CC(=O)O)NC(=O)[C@H](CO)NC(=O)[C@@H](NC(=O)[C@H](Cc1ccccc1)NC(=O)[C@@H](NC(=O)CNC(=O)[C@H](CCC(=O)O)NC(=O)C(C)(C)NC(=O)[C@@H](N)Cc1c[nH]cn1)[C@@H](C)O)[C@@H](C)O)[C@@H](C)CC)C(=O)N[C@@H](CCC(N)=O)C(=O)N[C@@H](Cc1c[nH]c2ccccc12)C(=O)N[C@@H](CC(C)C)C(=O)N[C@H](C(N)=O)C(C)C
pEC50 hGLPR1 [7]: 10.4 -log M | pEC50 hSCTR [8]: 7.8 -log M

B3: SEQ ID NO: 220 (peptide)
peptide: H[Aib]EGTFTSDVSRLLEGAALQRFIQWLV-NH2
modifications: N-terminus assumed
SMILES: CC[C@H](C)[C@H](NC(=O)[C@H](Cc1ccccc1)NC(=O)[C@H](CCCNC(=N)N)NC(=O)[C@H](CCC(N)=O)NC(=O)[C@H](CC(C)C)NC(=O)[C@H](C)NC(=O)[C@H](C)NC(=O)CNC(=O)[C@H](CCC(=O)O)NC(=O)[C@H](CC(C)C)NC(=O)[C@H](CC(C)C)NC(=O)[C@H](CCCNC(=N)N)NC(=O)[C@H](CO)NC(=O)[C@@H](NC(=O)[C@H](CC(=O)O)NC(=O)[C@H](CO)NC(=O)[C@@H](NC(=O)[C@H](Cc1ccccc1)NC(=O)[C@@H](NC(=O)CNC(=O)[C@H](CCC(=O)O)NC(=O)C(C)(C)NC(=O)[C@@H](N)Cc1c[nH]cn1)[C@@H](C)O)[C@@H](C)O)C(C)C)C(=O)N[C@@H](CCC(N)=O)C(=O)N[C@@H](Cc1c[nH]c2ccccc12)C(=O)N[C@@H](CC(C)C)C(=O)N[C@H](C(N)=O)C(C)C
pEC50 hGLPR1 [7]: 10.2 -log M | pEC50 hSCTR [8]: 7.2 -log M

B4: SEQ ID NO: 221 (peptide)
peptide: H[Aib]EGTFTSDPSRLLEGAALQRFIQWLV-NH2
modifications: N-terminus assumed
SMILES: CC[C@H](C)[C@H](NC(=O)[C@H](Cc1ccccc1)NC(=O)[C@H](CCCNC(=N)N)NC(=O)[C@H](CCC(N)=O)NC(=O)[C@H](CC(C)C)NC(=O)[C@H](C)NC(=O)[C@H](C)NC(=O)CNC(=O)[C@H](CCC(=O)O)NC(=O)[C@H](CC(C)C)NC(=O)[C@H](CC(C)C)NC(=O)[C@H](CCCNC(=N)N)NC(=O)[C@H](CO)NC(=O)[C@@H]1CCCN1C(=O)[C@H](CC(=O)O)NC(=O)[C@H](CO)NC(=O)[C@@H](NC(=O)[C@H](Cc1ccccc1)NC(=O)[C@@H](NC(=O)CNC(=O)[C@H](CCC(=O)O)NC(=O)C(C)(C)NC(=O)[C@@H](N)Cc1c[nH]cn1)[C@@H](C)O)[C@@H](C)O)C(=O)N[C@@H](CCC(N)=O)C(=O)N[C@@H](Cc1c[nH]c2ccccc12)C(=O)N[C@@H](CC(C)C)C(=O)N[C@H](C(N)=O)C(C)C
pEC50 hGLPR1 [7]: 8.6 -log M | pEC50 hSCTR [8]: 5.3 -log M

B5: SEQ ID NO: 222 (peptide)
peptide: H[Aib]EGTFTSD[Aib]SRLLEGAALQRFIQWLV-NH2
modifications: N-terminus assumed
SMILES: CC[C@H](C)[C@H](NC(=O)[C@H](Cc1ccccc1)NC(=O)[C@H](CCCNC(=N)N)NC(=O)[C@H](CCC(N)=O)NC(=O)[C@H](CC(C)C)NC(=O)[C@H](C)NC(=O)[C@H](C)NC(=O)CNC(=O)[C@H](CCC(=O)O)NC(=O)[C@H](CC(C)C)NC(=O)[C@H](CC(C)C)NC(=O)[C@H](CCCNC(=N)N)NC(=O)[C@H](CO)NC(=O)C(C)(C)NC(=O)[C@H](CC(=O)O)NC(=O)[C@H](CO)NC(=O)[C@@H](NC(=O)[C@H](Cc1ccccc1)NC(=O)[C@@H](NC(=O)CNC(=O)[C@H](CCC(=O)O)NC(=O)C(C)(C)NC(=O)[C@@H](N)Cc1c[nH]cn1)[C@@H](C)O)[C@@H](C)O)C(=O)N[C@@H](CCC(N)=O)C(=O)N[C@@H](Cc1c[nH]c2ccccc12)C(=O)N[C@@H](CC(C)C)C(=O)N[C@H](C(N)=O)C(C)C
pEC50 hGLPR1 [7]: 9.9 -log M | pEC50 hSCTR [8]: 6.5 -log M

From patent US20260201008A1, “SECRETIN-DERIVED GLP1R SELECTIVE AGONISTS” (GUBRA A/S, priority 2023, published 2026)
